Measurements from US20100021474A1 (Genentech, published 2010).

Legend:
[1] = biological target: T1, uPA (high molecular weight form) (UniProt P00749 21-431, limits assumed); experiment: Ki app, enzyme inhibition assay with chromogenic substrate S2444, fit to the tight binding inhibition equation
T1 construct: Bought reagent
Description: (§1) A soluble form of the bi-Kunitz inhibitor HAI-2 was used as a stop reagent for the pro-uPA activation assay. […] HAI-2 was incubated with 0.5 nM HEPSIN or 10 nM uPA for 30 min in Hepes buffer (20 mM Hepes, pH 7.5, 150 mM NaCl, 5 mM CaCl₂, 0.01% Triton X-100) at room temperature. The chromogenic substrates S2366 (for HEPSIN) or S2444 (for uPA) were added at a concentration corresponding to their respective Kₘ values, which were determined in separate experiments. After substrate addition, the increase in absorbance at 405 nm was measured on a kinetic microplate reader (Molecular Devices, Sunnyvale, Calif.). The Kᵢ^app values were determined by fitting the data to the equation for tight binding inhibition (22,23).

[2] = biological target: T2, soluble form of HEPSIN comprising the entire extracellular domain (human HEPSIN Arg45-Leu417, His-tagged) (human, UniProt P05981 45-417); experiment: Ki app, enzyme inhibition assay with chromogenic substrate S2366, fit to the tight binding inhibition equation
T2 construct: range 45-417; Under reducing SDS-PAGE it runs as a 20 kDa A-chain and a 30 kDa B-chain; also called soluble HEPSIN; recombinant soluble HEPSIN; not shown: His tag
Description: as §1

T2 sequence (P05981 45-417 limits assumed): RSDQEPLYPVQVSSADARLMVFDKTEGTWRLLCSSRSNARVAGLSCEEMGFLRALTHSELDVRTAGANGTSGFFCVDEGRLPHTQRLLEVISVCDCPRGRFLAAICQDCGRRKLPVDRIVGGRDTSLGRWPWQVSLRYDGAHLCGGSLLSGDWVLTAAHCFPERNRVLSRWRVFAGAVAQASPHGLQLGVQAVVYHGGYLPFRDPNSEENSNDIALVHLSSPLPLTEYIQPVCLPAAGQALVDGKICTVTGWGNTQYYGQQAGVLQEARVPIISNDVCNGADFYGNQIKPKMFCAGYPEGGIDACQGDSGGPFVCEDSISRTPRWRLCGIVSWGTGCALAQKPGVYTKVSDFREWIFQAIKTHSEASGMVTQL

Ki [1]: > 1000 nM
Ki [2]: 0.26 nM
B1: soluble form of hepatocyte growth factor activator inhibitor-2 (HAI-2) (other, UniProt O43291 28-197, looked up)
chain: ADRERSIHDFCLVSKVVGRCRASMPRWWYNVTDGSCQLFVYGGCDGNSNNYLTKEECLKKCATVTENATGDLATSRNAADSSVPSAPRRQDSEDHSSDMFNYEEYCTANAVTGPCRASFPRWYFDVERNSCNNFIYGGCRGNKNSYRSEEACMLRCFRQQENPPLPLGSK
notes: Called a soluble form
